Laboratory results published in US20140302041A1 (ORIBASE PHARMA, published 2014).

Columns and labels:
mouse Axl-Fc = target: T1, mouse Axl-Fc (mouse, UniProt Q00993 20-443, limits assumed); experiment: ELISA, plates with mouse Axl-Fc, HRP-conjugated anti-mouse IgG, OD 450 nm
T1 construct: also called m-Axl; not shown: Fc part
T1 sequence (looked up): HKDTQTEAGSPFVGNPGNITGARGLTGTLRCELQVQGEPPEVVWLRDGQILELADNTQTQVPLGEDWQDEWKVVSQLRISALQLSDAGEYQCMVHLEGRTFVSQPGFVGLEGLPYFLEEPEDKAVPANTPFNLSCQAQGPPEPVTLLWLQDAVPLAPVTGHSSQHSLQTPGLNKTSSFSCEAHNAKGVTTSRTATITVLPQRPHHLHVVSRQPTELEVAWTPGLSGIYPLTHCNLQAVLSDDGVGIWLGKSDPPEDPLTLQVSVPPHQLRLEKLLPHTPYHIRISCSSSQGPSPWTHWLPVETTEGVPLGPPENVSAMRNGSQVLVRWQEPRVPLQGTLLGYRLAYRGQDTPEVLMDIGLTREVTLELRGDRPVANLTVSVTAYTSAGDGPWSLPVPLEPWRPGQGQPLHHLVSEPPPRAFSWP
Experimental: (§1) FIG. 1: ELISA experiments to investigate the affinity and the specificity of mouse monoclonal antibodies against hAxl.
(§2) For cross reaction assay, coated plates were incubated with human Axl-Fc (h-Axl), mouse Axl-Fc (m-Axl) or human Mer-Fc (h-Mer), Tyro-3-Fc (h-Tyro-3) for 1 hour at 37° C. and washed four times in PBST. Plates were incubated with anti-Axl mAbs (2 hours at 37° C.) and washed four times in PBST. Plates were incubated with HRP-conjugated anti-mouse IgG (Sigma) at a 1:2000 dilution in PBST, 1% BSA (1 hour at 37° C.). Finally, an ortho-phenylenediamine solution (Sigma) was added for 30 min at room temperature in the dark and the absorbance was measured at 450 nm.

[1] = target: T2, human Axl on the cell surface (A549 cells; pancreatic cancer cell lines) (human, UniProt P30530 26-894); experiment: flow cytometry on A549 cells, fluorescein-conjugated anti-mouse IgG
T2 construct: whole, on cells; also called cell surface Axl; Axl receptor
T2 sequence (looked up): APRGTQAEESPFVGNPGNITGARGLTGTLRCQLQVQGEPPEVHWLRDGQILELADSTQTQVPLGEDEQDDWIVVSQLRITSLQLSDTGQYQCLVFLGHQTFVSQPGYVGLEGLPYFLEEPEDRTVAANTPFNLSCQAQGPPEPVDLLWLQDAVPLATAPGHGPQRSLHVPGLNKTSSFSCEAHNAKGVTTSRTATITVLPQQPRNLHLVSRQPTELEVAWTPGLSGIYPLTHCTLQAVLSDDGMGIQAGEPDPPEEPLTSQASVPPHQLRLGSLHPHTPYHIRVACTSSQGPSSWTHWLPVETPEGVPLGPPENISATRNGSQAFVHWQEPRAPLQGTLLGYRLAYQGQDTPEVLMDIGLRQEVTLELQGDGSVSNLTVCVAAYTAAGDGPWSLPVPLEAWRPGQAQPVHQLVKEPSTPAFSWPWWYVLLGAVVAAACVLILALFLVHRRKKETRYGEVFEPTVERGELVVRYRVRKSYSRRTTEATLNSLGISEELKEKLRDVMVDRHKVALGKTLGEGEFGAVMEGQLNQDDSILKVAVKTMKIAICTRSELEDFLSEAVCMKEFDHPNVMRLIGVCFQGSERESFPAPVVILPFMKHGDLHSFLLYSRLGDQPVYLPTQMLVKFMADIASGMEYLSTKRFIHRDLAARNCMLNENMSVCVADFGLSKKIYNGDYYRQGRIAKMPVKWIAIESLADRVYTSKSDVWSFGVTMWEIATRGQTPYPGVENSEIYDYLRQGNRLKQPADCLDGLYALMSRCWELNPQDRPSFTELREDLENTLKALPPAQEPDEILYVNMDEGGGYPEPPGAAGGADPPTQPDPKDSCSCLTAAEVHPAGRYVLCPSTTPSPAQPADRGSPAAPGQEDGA
Experimental: FIG. 2: Flow cytometry analysis of cell surface Axl in A549.
The ability of mouse anti-Axl monoclonal antibodies of the invention to specifically recognize Axl expressing cells was determined by FACS using standard techniques. Briefly, A549 cells (ATCC number: CCL-185) were harvested, stained with purified mouse anti-Axl monoclonal antibodies of the invention at 4° C. for 1 hour, washed three times in PBS-BSA 0.1%, and then stained with fluorescein-conjugated anti-mouse IgG (1:50) (Sigma) at 4° C. in the dark for 45 min. Samples were analyzed on EPICS flow cytometer (Beckman-Coulter, Fullerton, Calif.).

[2] = target: human Axl extracellular domain fused to human Fc domain (hAxl-hFc protein; R&D system) (human) (UniProt P30530); experiment: SPR (BIAcore), hAxl-hFc amine-coupled to a CM5 chip; 20G7-D9 (666 nM by the text) injected first, lower panel
human Mer-Fc = target: T3, human Mer-Fc (human, UniProt Q12866 26-499, limits assumed); experiment: ELISA, plates with human Mer-Fc, HRP-conjugated anti-mouse IgG, OD 450 nm
T3 construct: also called h-Mer; not shown: Fc part
T3 sequence (looked up): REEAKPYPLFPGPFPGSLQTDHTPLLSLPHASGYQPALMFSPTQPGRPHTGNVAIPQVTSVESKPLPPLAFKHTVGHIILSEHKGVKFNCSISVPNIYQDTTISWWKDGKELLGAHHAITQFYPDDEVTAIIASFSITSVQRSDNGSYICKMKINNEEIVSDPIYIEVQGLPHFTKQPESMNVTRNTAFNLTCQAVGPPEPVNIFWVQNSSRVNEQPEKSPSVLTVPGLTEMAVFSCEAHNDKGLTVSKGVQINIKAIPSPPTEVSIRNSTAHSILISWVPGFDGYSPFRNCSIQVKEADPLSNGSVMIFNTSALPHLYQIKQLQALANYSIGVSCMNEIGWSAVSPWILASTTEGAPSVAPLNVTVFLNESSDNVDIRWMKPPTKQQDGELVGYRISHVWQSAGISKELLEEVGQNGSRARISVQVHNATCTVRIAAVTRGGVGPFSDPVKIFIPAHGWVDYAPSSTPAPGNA
Experimental: as §1, §2

[3] = target: human Axl extracellular domain fused to human Fc domain (hAxl-hFc protein; R&D system) (human) (UniProt P30530); experiment: SPR (BIAcore), hAxl-hFc amine-coupled to a CM5 chip; 20G7-D9 (666 nM by the text) injected second, without removing Gas6, upper panel
[4] = target: human Axl extracellular domain fused to human Fc domain (hAxl-hFc protein; R&D system) (human) (UniProt P30530); experiment: SPR (BIAcore 3000), hAxl-hFc amine-coupled on CM5 chip, mAb injected at 2 to 133 nM, 25 °C, 1:1 Langmuir model; hAxl-hFc on the CM5 chip, mAb injected at 2 to 133 nM, 25 C
Tyro-3-Fc (h-Tyro-3) = target: T4, Tyro-3-Fc (h-Tyro-3) (human, UniProt Q06418 41-428, limits assumed); experiment: ELISA, plates with human Tyro-3-Fc, HRP-conjugated anti-mouse IgG, OD 450 nm
T4 construct: The species is read from the label 'h-Tyro-3'; also called human Tyro-3-Fc; not shown: Fc part
T4 sequence (looked up): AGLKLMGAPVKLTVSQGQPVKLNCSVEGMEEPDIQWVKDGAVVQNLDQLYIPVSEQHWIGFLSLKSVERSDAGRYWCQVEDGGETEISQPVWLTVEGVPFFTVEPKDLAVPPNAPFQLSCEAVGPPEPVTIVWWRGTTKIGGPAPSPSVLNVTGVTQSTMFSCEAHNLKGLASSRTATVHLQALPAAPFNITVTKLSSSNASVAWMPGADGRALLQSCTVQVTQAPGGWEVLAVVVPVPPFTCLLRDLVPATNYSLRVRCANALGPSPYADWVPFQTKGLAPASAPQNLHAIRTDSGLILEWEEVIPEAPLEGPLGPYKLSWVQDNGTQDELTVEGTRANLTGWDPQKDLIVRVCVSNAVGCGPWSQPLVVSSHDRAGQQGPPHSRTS
Experimental: as §1, §2

B1: mouse anti-Axl monoclonal antibody 20G7-D9 (antibody, V domains shown)
VH: QVQLQQSGAELMKPGASVKMSCKAAGYTFSSYWIEWVRQRPGHGLEWIGEIFPGSDSTNYNEKFNDRATFTADTSSNTAYMQLSSLTSEDSAVYYCARPLYYGSSAWFAYWGQGTLVTVSA
VL: DIQMTQSPASLSASVGETVTITCRASENIYSYLTWYQQKQRKSPQLLVYNAKTLAEGVPSRFSGSGSGTQFSLKINSLQPEDFGTYYCQHHYATPWTFGGGTKVEIK
notes: the irrelevant control Px is called 'murine IgG1 isotype mAb'; also called mAb 20G7-D9; mAb 20G7D9
- binding result (mouse Axl-Fc): no binding
- binding result [1]: binds
- response (RU) [2]: 2530 RU
- binding result (human Mer-Fc): no binding
- response (RU) [3]: 2280 RU
- Kd [4]: 53 nM
- binding result (Tyro-3-Fc (h-Tyro-3)): no binding
